For this data set, the target named is T1, GLH-1(DQAD) (Caenorhabditis elegans, UniProt P34689 1-763, E500Q).
T1 sequence: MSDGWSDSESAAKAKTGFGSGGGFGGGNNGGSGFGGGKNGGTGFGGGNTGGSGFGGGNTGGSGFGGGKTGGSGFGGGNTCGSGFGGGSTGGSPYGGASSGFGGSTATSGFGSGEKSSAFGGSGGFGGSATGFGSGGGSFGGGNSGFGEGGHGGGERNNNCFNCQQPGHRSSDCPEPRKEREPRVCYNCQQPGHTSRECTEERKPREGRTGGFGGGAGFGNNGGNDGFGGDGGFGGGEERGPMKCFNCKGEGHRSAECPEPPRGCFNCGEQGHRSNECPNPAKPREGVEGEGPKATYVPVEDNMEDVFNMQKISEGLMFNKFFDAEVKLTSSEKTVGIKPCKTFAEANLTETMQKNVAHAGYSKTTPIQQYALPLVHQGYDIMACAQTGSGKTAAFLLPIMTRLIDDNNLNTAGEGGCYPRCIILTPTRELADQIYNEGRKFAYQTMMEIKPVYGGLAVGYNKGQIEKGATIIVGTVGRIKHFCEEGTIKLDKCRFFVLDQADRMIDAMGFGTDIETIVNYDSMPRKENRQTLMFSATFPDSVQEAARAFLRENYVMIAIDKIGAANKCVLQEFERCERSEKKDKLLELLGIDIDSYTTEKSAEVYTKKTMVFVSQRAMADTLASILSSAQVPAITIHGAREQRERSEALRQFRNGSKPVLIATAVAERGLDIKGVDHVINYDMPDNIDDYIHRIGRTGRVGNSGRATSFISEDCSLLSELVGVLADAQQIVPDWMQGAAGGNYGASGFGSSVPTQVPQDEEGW
The data set is described as follows: EMSA; 2 mM ATP, 2 mM MgCl2; 10 uM protein, 2 uM RNA; strong ATP-dependent binding; 25 mM HEPES pH 7.4, 150 mM NaCl, 2 mM MgCl2, +/- 2 mM ATP, 30 min at RT; native 8% PAGE in TBE, cold room. The following applies: protein: recombinant; tags: FLAG; label: 5'-Cy3 (Methods); single strand.

GUCAAAGAUAGCCUUGACCUUG (ssRNA) [22-nt ssRNA oligo]: the binding result was “binds”.

For the origin of these results see PMC9887883, “A family of C. elegans VASA homologs control Argonaute pathway specificity and promote transgenerational silencing”.
